B1: Nuclear receptor subfamily 1 group D member 2, residues 103 to 171; numbered along this chain, Q14995 (parent)
chain: CKVCGDVASGFHYGVHACEGCKGFFRRSIQQNIQYKKCLKNENCSIMRMNRNRCQQCRFKKCLSVGMSR
B2: Protein S100-G, residues 1 to 79; numbered along this chain, P02633 (parent)
chain: MSAKKSPEELKGIFEKYAAKEGDPNQLSKEELKLLLQTEFPSLLKGPSTLDELFEELDKNGDGEVSFEEFQVLVKKISQ

± gives the uncertainty stated by the source.

In one data set the parent is B1. The experiment in a line: abundance fitness (aPCA) (normalised: wild type 0, dead -1); higher = more abundant; growth selection in yeast, the domain comes from the species named. The conditions noted are these: Homo sapiens.
Regarding CKVCGDVASGFHYGVHACEGCKGFFRRSIQQNIQYKKCLKNENCSIMRMNRNRCQQCRFKKCLSVLMSR, the abundance fitness was -0.459 ± 0.38.

With CKVCGDVASGFHYGVHACEGCKGFFRRSIQQNIQYKKCLKNENCSIMRMNRNRCQQCRFSKCLSVGMSR, the abundance fitness is -0.284 ± 0.24.

Take CKVCGDVASGFHYGVGACEGCKGFFRRSIQQNIQYKKCLKNENCSIMRMNRNRCQQCRFKKCLSVGMSR: the abundance fitness is -0.412 ± 0.073.

For the variant CKVCGDVASGFHYGVNACEGCKGFFRRSIQQNIQYKKCLKNENCSIMRMNRNRCQQCRFKKCLSVGMSR, the abundance fitness is -0.297 ± 0.19.

Take CKVCGDVASGFHYGVHACEGCKGPFRRSIQQNIQYKKCLKNENCSIMRMNRNRCQQCRFKKCLSVGMSR: the abundance fitness is -0.52 ± 0.47.

Regarding CKVCGDVASGFHYGVHACEGCKGFFRRSIQQNIQYKKCLKNENCSIMRMNRNRCQQCRFKKCLSVGDSR, the abundance fitness is 0.029 ± 0.21.

For CKVCGDVASGFHYGVHACEGCKGFFRRSIQQNIQYKKCLKNENCSIMRMNRNRCQQCRFKKCLSRGMSR, the abundance fitness is -0.895 ± 0.14.

CKVCGDVASGFHYGVHACEGCKGFFRRSIQQNIQYKKCLKNENCSIMRGNRNRCQQCRFKKCLSVGMSR: the abundance fitness turned out to be 0.044 ± 0.12.

In the case of CKVCGDVASGFHYGVHACEGCKGFFRRSIQQNIQYKKCLKNENCSIMRNNRNRCQQCRFKKCLSVGMSR, the abundance fitness turned out to be 0.093 ± 0.36.

Consider CKVCGDVASGFHYGVHACEGCKGFFRRGIQQNIQYKKCLKNENCSIMRMNRNRCQQCRFKKCLSVGMSR, for which the abundance fitness was -0.748 ± 0.26.

For the variant CKVCGDVASGFHYGVHACEGCKGFFRRMIQQNIQYKKCLKNENCSIMRMNRNRCQQCRFKKCLSVGMSR, the abundance fitness was -0.291 ± 0.42.

For the variant CKVCGDVASGFHYGVHACEGCKGFFRRSIQQNIQYKKCLKNENCSNMRMNRNRCQQCRFKKCLSVGMSR, the abundance fitness is -0.012 ± 0.22.

As for CKVCGDVASGFHYGVHACEGCKGFFRHSIQQNIQYKKCLKNENCSIMRMNRNRCQQCRFKKCLSVGMSR, the abundance fitness came out at 0.305 ± 0.27.

Take CKVCGDVASGFHYGVHACEGCKGFFRRSIQQNIQYKKCQKNENCSIMRMNRNRCQQCRFKKCLSVGMSR: the abundance fitness was -0.068 ± 0.15.

CKVCGDVASGFHYGVHACEGCKGFFRRSIQQNIQYKKCIKNENCSIMRMNRNRCQQCRFKKCLSVGMSR: the abundance fitness was found to be 0.161 ± 0.2.

Take CKVCGDVASGFHYGVHACEGCKGFFRRSIQQNIQYKKCLKNENCSIMRMNRNRCQQCRFKHCLSVGMSR: the abundance fitness was -0.681 ± 0.29.

With CKVCGDVASGFHMGVHACEGCKGFFRRSIQQNIQYKKCLKNENCSIMRMNRNRCQQCRFKKCLSVGMSR, the abundance fitness was -0.732 ± 0.16.

With CKVCGDVASGFHCGVHACEGCKGFFRRSIQQNIQYKKCLKNENCSIMRMNRNRCQQCRFKKCLSVGMSR, the abundance fitness was -0.496 ± 0.1.

Turning to CKVCGTVASGFHYGVHACEGCKGFFRRSIQQNIQYKKCLKNENCSIMRMNRNRCQQCRFKKCLSVGMSR, the abundance fitness is -0.47 ± 0.11.

Take CKVCGDVASGFHYGVHACEGCKGFFRRSIQQNIQYKKCLKNENCSIMRMNRNRCQFCRFKKCLSVGMSR: the abundance fitness is -0.006 ± 0.24.

CKVCGDVASGFHYGVHACEGCKGFFRRSIQQNIQYKKCLKNENCSIMGMNRNRCQQCRFKKCLSVGMSR: the abundance fitness amounted to 0.089 ± 0.079.

In the case of CKVCGDVASGFHYGVHACEGCKGFFRRSIQQNIQYKKCLKNENCSIMRMNRNRTQQCRFKKCLSVGMSR, the abundance fitness was -0.717 ± 0.12.

Variants of B2 are the subject of the next data set. The description is as above. Particulars: Bos taurus.
MSAKKSPEELKGIFEKYAAKEGDPNQLSKEELKLLLQTEKPSLLKGPSTLDELFEELDKNGDGEVSFEEFQVLVKKISQ: the abundance fitness is -0.218 ± 0.084.

For MSAKKSPEELKGIFEKYAAKEGDPNQLSKEELKLLLQTEFPSLLKGPSTLQELFEELDKNGDGEVSFEEFQVLVKKISQ, the abundance fitness was -0.091 ± 0.081.

On to MSAKKSPEELKGIFEKYAAKEGDPNQLSKEELKLLLQTEFPSLLKGPSTLDELFEELDKNGDGEVVFEEFQVLVKKISQ, for which the abundance fitness was determined as 0 ± 0.067.

For the variant MSAKKSPEELKGIFEKEAAKEGDPNQLSKEELKLLLQTEFPSLLKGPSTLDELFEELDKNGDGEVSFEEFQVLVKKISQ, the abundance fitness was -0.425 ± 0.084.

For MSAKKSPEELKGIFEKYAAKEGDPNQLSSEELKLLLQTEFPSLLKGPSTLDELFEELDKNGDGEVSFEEFQVLVKKISQ, the abundance fitness was -0.006 ± 0.068.

On to MSAKKSPEELKGIFEKYAAKEGDPNQLSEEELKLLLQTEFPSLLKGPSTLDELFEELDKNGDGEVSFEEFQVLVKKISQ, for which the abundance fitness is -0.14 ± 0.083.

Consider MSAKKSPEELKGIFEKYAAKEGDPNQLSHEELKLLLQTEFPSLLKGPSTLDELFEELDKNGDGEVSFEEFQVLVKKISQ, for which the abundance fitness turned out to be 0.06 ± 0.086.

In the case of MSAKKSPEELKGIFEKYAAKEGDPNQLSKEELKLLLQTEFPSLLKGPSWLDELFEELDKNGDGEVSFEEFQVLVKKISQ, the abundance fitness was -0.076 ± 0.087.

Regarding MSAKKSPEELKGIFEKYAAKEGDPNQLSKEELKLLLQTEFPSLLKGPSELDELFEELDKNGDGEVSFEEFQVLVKKISQ, the abundance fitness was -0.026 ± 0.095.

As for MSAKKSPEELKGIFEKYAAKEGDPNHLSKEELKLLLQTEFPSLLKGPSTLDELFEELDKNGDGEVSFEEFQVLVKKISQ, the abundance fitness is -0.075 ± 0.089.

As to MSAKKSPEELKGIFEKYAAKEGDPNQLSKEELKLLLQTEFPSLLKGPSTLDELFEELDKNGDGEVSFEEFQVLVSKISQ, the abundance fitness is -0.023 ± 0.063.

As to MSAKKSPEEVKGIFEKYAAKEGDPNQLSKEELKLLLQTEFPSLLKGPSTLDELFEELDKNGDGEVSFEEFQVLVKKISQ, the abundance fitness is -0.081 ± 0.074.

MSAKKSPEELKGIFEKYAAKENDPNQLSKEELKLLLQTEFPSLLKGPSTLDELFEELDKNGDGEVSFEEFQVLVKKISQ: the abundance fitness is -0.147 ± 0.092.

Take MSAKKSPEELKGIFEKYAAKEGDPNQLSKEELKLLLQTEFPSLLKGPSTLDELFEELDKNGDGEVSFEEFQLLVKKISQ: the abundance fitness is -0.004 ± 0.063.

These data come from the Human Domainome abundance scans (Beltran et al. 2025).
